Reference: publication PMC5138847 (Scientific Reports, 2016)

T1: DrUox (zebrafish urate oxidase, uricase) (Danio rerio, UniProt Q6DG85, F216S)
T1 construct: gene uox; full length, 298 aa; N-terminal 6xHis tag (pET28b) for wt and F216S kinetics, untagged for crystals; E. coli BL21-CodonPlus(DE3); homotetramer
T1 sequence (Q6DG85 1-298 F216S): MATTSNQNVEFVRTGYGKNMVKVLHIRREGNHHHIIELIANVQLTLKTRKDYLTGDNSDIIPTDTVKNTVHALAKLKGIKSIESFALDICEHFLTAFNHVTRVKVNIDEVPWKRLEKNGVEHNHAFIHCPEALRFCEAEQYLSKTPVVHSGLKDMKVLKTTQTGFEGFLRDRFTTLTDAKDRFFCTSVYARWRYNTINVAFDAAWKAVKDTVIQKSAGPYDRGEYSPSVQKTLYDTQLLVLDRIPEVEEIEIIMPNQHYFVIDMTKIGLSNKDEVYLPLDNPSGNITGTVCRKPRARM

T2: DrUox (zebrafish urate oxidase, uricase) (Danio rerio, UniProt Q6DG85)
T2 construct: gene uox; full length, 298 aa; N-terminal 6xHis tag (pET28b) for wt and F216S kinetics, untagged for crystals; E. coli BL21-CodonPlus(DE3); homotetramer
T2 sequence (Q6DG85 1-298): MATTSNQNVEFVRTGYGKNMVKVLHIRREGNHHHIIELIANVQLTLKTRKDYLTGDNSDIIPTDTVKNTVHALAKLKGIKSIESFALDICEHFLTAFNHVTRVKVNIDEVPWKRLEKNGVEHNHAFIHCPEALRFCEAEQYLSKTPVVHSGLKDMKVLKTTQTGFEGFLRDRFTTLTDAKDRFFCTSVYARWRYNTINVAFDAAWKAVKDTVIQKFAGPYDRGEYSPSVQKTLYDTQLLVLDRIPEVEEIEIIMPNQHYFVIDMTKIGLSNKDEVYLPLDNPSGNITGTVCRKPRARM


How the values were obtained:
[1] = target: T1, DrUox (zebrafish urate oxidase, uricase); experiment: UV absorbance at […] nm, global fit to competitive inhibition; type: biochemical; conditions: read-out: Xanthine / Ki
[2] = target: T2, DrUox (zebrafish urate oxidase, uricase); experiment: UV absorbance, global fit to competitive inhibition; type: biochemical; conditions: read-out: Xanthine / Ki
purified protein = substrate: O=c1[nH]c(=O)c2[nH]c(=O)[nH]c2[nH]1; experiment: purified protein; conditions: 100 mM potassium phosphate pH 7.6, 25 °C, equimolar DrUrah
[3] = target: the molecule itself; experiment: SEC; HPLC-SEC on a Superdex 200 increase 3.2/300 column, native conditions, about 13 ug of each sample, elution monitored at 280 nm, calibrated with standards
[4] = target: the molecule itself; experiment: crystal structure; untagged DrUox 10 mg/ml (10 mM Tris-HCl pH 7.6, 1 mM EDTA), crystallised in 0.1 M Tris-HCl pH 8.5, 8% PEG 8000; space group P21, two tetramers in the asymmetric unit; 2.8 A

Molecule	Km (purified protein)	kcat (purified protein)	kcat/Km (purified protein)	stoichiometry N [3]	also measured
O=c1[nH]c(=O)c2[nH]cnc2[nH]1 [xanthine]	–	–	–	–	Ki [1]: 59.2 ± 8.2 µM; Ki [2]: 4.3 ± 0.27 µM
DrUox (zebrafish urate oxidase, uricase) (Danio rerio) (protein) MATTSNQNVEFVRTGYGKNMVKVLHIRREGNHHHIIELIANVQLTLKTRKDYLTGDNSDIIPTDTVKNTVHALAKLKGIKSIESFALDICEHFLTAFNHVTRVKVNIDEVPWKRLEKNGVEHNHAFIHCPEALRFCEAEQYLSKTPVVHSGLKDMKVLKTTQTGFEGFLRDRFTTLTDAKDRFFCTSVYARWRYNTINVAFDAAWKAVKDTVIQKFAGPYDRGEYSPSVQKTLYDTQLLVLDRIPEVEEIEIIMPNQHYFVIDMTKIGLSNKDEVYLPLDNPSGNITGTVCRKPRARM	11 ± 1 µM	3.95 s⁻¹	360000 M⁻¹ s⁻¹	–	–
zebrafish urate oxidase F216S mutant, His-tagged (enzyme, zebrafish (Danio rerio), UniProt Q6DG85 1-298, looked up, also called F216S DrUox; mutant DrUox; source: E. coli BL21-CodonPlus(DE3), purified (Talon cobalt resin)) MATTSNQNVEFVRTGYGKNMVKVLHIRREGNHHHIIELIANVQLTLKTRKDYLTGDNSDIIPTDTVKNTVHALAKLKGIKSIESFALDICEHFLTAFNHVTRVKVNIDEVPWKRLEKNGVEHNHAFIHCPEALRFCEAEQYLSKTPVVHSGLKDMKVLKTTQTGFEGFLRDRFTTLTDAKDRFFCTSVYARWRYNTINVAFDAAWKAVKDTVIQKSAGPYDRGEYSPSVQKTLYDTQLLVLDRIPEVEEIEIIMPNQHYFVIDMTKIGLSNKDEVYLPLDNPSGNITGTVCRKPRARM	284 ± 31 µM	3.99 s⁻¹	14000 M⁻¹ s⁻¹	4	–
zebrafish urate oxidase, His-tagged wild type (enzyme, zebrafish (Danio rerio), UniProt Q6DG85 1-298, looked up, also called wt DrUox; His-tagged wt; source: E. coli BL21-CodonPlus(DE3), purified (Talon cobalt resin)) MATTSNQNVEFVRTGYGKNMVKVLHIRREGNHHHIIELIANVQLTLKTRKDYLTGDNSDIIPTDTVKNTVHALAKLKGIKSIESFALDICEHFLTAFNHVTRVKVNIDEVPWKRLEKNGVEHNHAFIHCPEALRFCEAEQYLSKTPVVHSGLKDMKVLKTTQTGFEGFLRDRFTTLTDAKDRFFCTSVYARWRYNTINVAFDAAWKAVKDTVIQKFAGPYDRGEYSPSVQKTLYDTQLLVLDRIPEVEEIEIIMPNQHYFVIDMTKIGLSNKDEVYLPLDNPSGNITGTVCRKPRARM	–	–	–	4	–
zebrafish (Danio rerio) urate oxidase, untagged wild type (enzyme, UniProt Q6DG85 1-298, looked up, cDNA IMAGE:100059545; In the crystal, electron density runs from Gly8 to Pro294; Cys129 forms an inter-subunit disulfide (chains A-C and B-D); also called DrUox; Uox; source: E. coli BL21-CodonPlus(DE3), purified (xanthine-agarose column, eluted with urate)) MATTSNQNVEFVRTGYGKNMVKVLHIRREGNHHHIIELIANVQLTLKTRKDYLTGDNSDIIPTDTVKNTVHALAKLKGIKSIESFALDICEHFLTAFNHVTRVKVNIDEVPWKRLEKNGVEHNHAFIHCPEALRFCEAEQYLSKTPVVHSGLKDMKVLKTTQTGFEGFLRDRFTTLTDAKDRFFCTSVYARWRYNTINVAFDAAWKAVKDTVIQKFAGPYDRGEYSPSVQKTLYDTQLLVLDRIPEVEEIEIIMPNQHYFVIDMTKIGLSNKDEVYLPLDNPSGNITGTVCRKPRARM	–	–	–	–	stoichiometry N [4]: 4
